B1: Myc-tagged mouse IL-17RA [mouse] / NF-κB activator 1 (Act1) [mouse (endogenous in MEFs)] (parent complex)
chain 1: SPRLLDFPAPVCAQEGLSCRVKNSTCLDDSWIHPKNLTPSSPKNIYINLSVSSTQHGELVPVLHVEWTLQTDASILYLEGAELSVLQLNTNERLCVKFQFLSMLQHHRKRWRFSFSHFVVDPGQEYEVTVHHLPKPIPDGDPNHKSKIIFVPDCEDSKMKMTTSCVSSGSLWDPNITVETLDTQHLRVDFTLWNESTPYQVLLESFSDSENHSCFDVVKQIFAPRQEEFHQRANVTFTLSKFHWCCHHHVQVQPFFSSCLNDCLRHAVTVPCPVISNTTVPKPVADYIPLWVYGLITLIAILLVGSVIVLIICMTWRLSGADQEKHGDDSKINGILPVADLTPPPLRPRKVWIVYSADHPLYVEVVLKFAQFLITACGTEVALDLLEEQVISEVGVMTWVSRQKQEMVESNSKIIILCSRGTQAKWKAILGWAEPAVQLRCDHWKPAGDLFTAAMNMILPDFKRPACFGTYVVCYFSGICSERDVPDLFNITSRYPLMDRFEEVYFRIQDLEMFEPGRMHHVRELTGDNYLQSPSGRQLKEAVLRFQEWQTQCPDWFERENLCLADGQDLPSLDEEVFEDPLLPPGGGIVKQQPLVRELPSDGCLVVDVCVSEEESRMAKLDPQLWPQRELVAHTLQSMVLPAEQVPAAHVVEPLHLPDGSGAAAQLPMTEDSEACPLLGVQRNSILCLPVDSDDLPLCSTPMMSPDHLQGDAREQLESLMLSVLQQSLSGQPLESWPRPEVVLEGCTPSEEEQRQSVQSDQGYISRSSPQPPEWLTEEEELELGEPVESLSPEELRSLRKLQRQLFFWELEKNPGWNSLEPRRPTPEEQNPS
chain 2: MNRSIPVEVDESEPFPSQLLKPIPEYSPEEELEPPAPNTRNMAPSSLSVLQCPPLKLANHQPVSQQVTCLRAKVLEEGEASFFRRHPELGKDISSCSSGASEPESELGALPPEHRFTLTEKRNRWLGSQLSAASPDTGHESDKSDPSLPNALADSFSGGQEMMPRPRPRPGPHRHRAAPDVPTIDTGYDSQPQDVLGIRQLERPLPLTSSCYLQDLPGPLRSRELPPQFELERYPMNAQLLPPHPSPQAPWNCQYYCPGGPYHHQVPHGHGYPPAAAYQQVLQPALPGQVLPGARARGPRPVQKVILNDSSPQDQEERPAQRDFSFPRLPRDQLYRPPSNGVEAPEESLDLPAELRPHGPQAPSLAAVPRPPSNPLARGTLRTSNLPEELRKVFITYSMDTAMEVVKFVNFLLVNGFQTAIDIFEDRIRGIDIIKWMERYLRDKTVMIIVAISPKYKQDVEGAESQLDEDEHGLHTKYIHRMMQIEFISQGSMNFRFIPVLFPNAKKEHVPTWLQNTHVYSWPKNKKNILLRLLREEEYVAPPRGPLPTLQVVPL

Variants of B1 are the subject of the assay. The assay can be described thus: co-immunoprecipitation (anti-Myc IP, Western blot, ImageJ densitometry); IL-17RA-deficient MEFs reconstituted by retroviral infection; treated with IL-17 for 10 min; parent: 100. In general terms: Immunoblotting shows a protein as a band on a membrane.
As for chain 1 I429A, chain 1 L430A, the percent of parent is 102.

Take chain 1 V396A, chain 1 M397A: the percent of parent amounted to 98.

Consider chain 1 R420A, chain 1 Q423A, chain 1 K427A, for which the percent of parent worked out at 107.

Take chain 1 E388A, chain 1 Q389A, chain 1 E393A: the percent of parent stood at 107.

The values are drawn from PMC4014126 (2014).
